In publication PMC7582152 (2020):

B1: wild-type canine cardiac calsequestrin (Casq2) [canine] / ER luminal domain of IRE1α (IRE1-NLD) [modified: covalently labeled with a red fluorescent tag (Monolith NT Protein Labeling Kit RED-NHS); covalently labeled with a red fluorescent … (parent complex)
chain 1: EEGLNFPTYDGKDRVVSLTEKNFKQVLKKYDVLCLYYHESVSSDKVAQKQFQLKEIVLELVAQVLEHKDIGFVMVDAKKEAKLAKKLGFDEEGSLYVLKGDRTIEFDGEFAADVLVEFLLDLIEDPVEIINSKLEVQAFERIEDQIKLIGFFKSEESEYYKAFEEAAEHFQPYIKFFATFDKGVAKKLSLKMNEVDFYEPFMDEPIAIPDKPYTEEELVEFVKEHQRPTLRRLRPEDMFETWEDDLNGIHIVAFAERSDPDGYEFLEILKQVARDNTDNPDLSIVWIDPDDFPLLVAYWEKTFKIDLFKPQIGVVNVTDADSVWMEIPDDDDLPTAEELEDWIEDVLSGKINTEDDDNEEGDDGDDDEDDDDDDGNNSDEESNDDSDDDDE
chain 2: IFGSTSTVTLPETLLFVSTLDGSLHAVSKRTGSIKWTLKEDPVLQVPTHVEEPAFLPDPNDGSLYTLGSKNNEGLTKLPFTIPELVQASPCRSSDGILYMGKKQDIWYVIDLLTGEKQQTLSSAFADSLCPSTSLLYLGRTEYTITMYDTKTRELRWNATYFDYAASLPEDDVDYKMSHFVSNGDGLVVTVDSESGDVLWIQNYASPVVAFYVWQREGLRKVMHINVAVETLRYLTFMSGEVGRITKWKYPFPKETEAKSKLTPTLYVGKYSTSLYASPSMVHEGVAVVPRGSTLPLLEGPQTDGVTIGDKGECVITPSTDVKFDPGLKSKNKLNYLRNYWLLIGHHETPLSASTKMLERFPNNLPKHRENVIPADSEKKSFEEVINLVDQTSENAPTTVSRDVEEKPAHAPARPEAPVDSMLKD

Variants of: B1
Assay: microscale thermophoresis (MST); IRE1-NLD covalently labeled with a red fluorescent tag; increasing amounts of Casq2 or Casq2 mutant; three independent measurements; parent: 4.3e+03 nM; read off a plot

Compared with chain 1 P310S, chain 1 R14Q is 1.8-fold higher in Kd: about 3.2 µM for the first, about 5.9 µM for the second.

chain 1 D332G and chain 1 D288H are within 1.5-fold of each other in Kd: about 4.8 µM for the first, about 3.3 µM for the second.

Going from chain 1 K161R to chain 1 G313R, the Kd rises from about 1.4 µM to about 4.3 µM (3.1-fold).

With chain 1 L148H the Kd was about 2.8 µM.
